The source of these data is PMC11088704, “Structural basis for the regulation of plant transcription factor WRKY33 by the VQ protein SIB1” (Communications Biology, 2024).

Series [1] has as its target T1, spin-labeled WRKY33_C K376C (Arabidopsis thaliana, UniProt Q8S8P5 331-422, K376C, Cys376 labelled with N-[2-maleimidoethyl]ethylenediamine-N,N,N',N'-tetraacetic acid monoamide, chelating Mn^2+ (paramagnetic) or Ca^2+).
T1 construct: WRKY33, Arabidopsis, C-terminal DBD; also called K376C spin-labeled; Ca^2+-chelated WRKY33_C mutant; source: E. coli, purified as the wild type; labelled, then purified on a cation exchange column
The series can be described thus: NMR titration; 2D 1H-15N HSQC of 15N-labeled SIB1 free and in complex with unlabeled WRKY33_C or its mutants; 30 mM MES pH 6.0, 50 mM NaCl, 20 uM ZnSO4, 25 °C. Particulars: both partners purified.

Another series concerns the target T2, WRKY33_C R366C mutant (Arabidopsis thaliana, UniProt Q8S8P5 331-422, R366C).
T2 construct: WRKY33, Arabidopsis, C-terminal DBD; also called R336 (as printed once); source: E. coli, expressed and purified similarly to the wild-type protein
The description is as above. Particulars: both partners purified.

For series [2], the target named is T3, spin-labeled WRKY33_C D357C (Arabidopsis thaliana, UniProt Q8S8P5 331-422, D357C, Cys357 labelled with N-[2-maleimidoethyl]ethylenediamine-N,N,N',N'-tetraacetic acid monoamide, chelating Mn^2+ (paramagnetic) or Ca^2+).
T3 construct: WRKY33, Arabidopsis, C-terminal DBD; also called D357C spin-labeled; Ca^2+-chelated WRKY33_C mutant; source: E. coli, purified as the wild type; labelled, then purified on a cation exchange column
The series is described as above. Particulars: both partners purified.

For the next series, the target named is T4, WRKY33_C D357C mutant (Arabidopsis thaliana, UniProt Q8S8P5 331-422, D357C).
T4 construct: WRKY33, Arabidopsis, C-terminal DBD; The mutant without the maleimide-EDTA tag; source: E. coli, expressed and purified similarly to the wild-type protein
The description is as above. Particulars: both partners purified.

The next series has as its target T5, WRKY33_C K376C mutant (Arabidopsis thaliana, UniProt Q8S8P5 331-422, K376C).
T5 construct: WRKY33, Arabidopsis, C-terminal DBD; The mutant without the maleimide-EDTA tag; source: E. coli, expressed and purified similarly to the wild-type protein
Described as above. The note with it: both partners purified.

In series [3] the target is T6, spin-labeled WRKY33_C R366C (Arabidopsis thaliana, UniProt Q8S8P5 331-422, R366C, Cys366 labelled with N-[2-maleimidoethyl]ethylenediamine-N,N,N',N'-tetraacetic acid monoamide, chelating Mn^2+ (paramagnetic) or Ca^2+).
T6 construct: WRKY33, Arabidopsis, C-terminal DBD; also called R366C spin-labeled; Ca^2+-chelated WRKY33_C mutant; source: E. coli, purified as the wild type; labelled, then purified on a cation exchange column
Described as above. The note with it: both partners purified.

The target of series [4] is T7, WRKY33 C-terminal DNA-binding domain (WRKY33_C) (Arabidopsis thaliana, UniProt Q8S8P5 331-422).
T7 construct: it holds I350 and the truncation V352-A422 is derived from it; Zinc-finger domain; 20 uM ZnSO4 in the buffers; Construct limits may be read from PDB 8K31; also called WRKY33 cDBD; WK33; source: E. coli BL21(DE3), purified (Ni-NTA, gel filtration Superdex-75)
The series can be described thus: cross-linking; EGS crosslinker, 30-fold molar excess; WRKY33_C and SIB1 each 90 uM; 20 mM HEPES pH 7.0, 50 mM NaCl; room temperature; Tricine-SDS-PAGE. Particulars: both partners purified.

For series [5], the target named is T7, WRKY33 C-terminal DNA-binding domain …. As to the kind of experiment: SEC; Superdex-75; Trx-SIB1 incubated with WRKY33_C before loading; protein standards for calibration. The note with it: both partners purified.
The target of a further series is WRKY33_C (Arabidopsis thaliana, UniProt Q8S8P5 345-422). As to the kind of experiment: EMSA; no SIB1; estimated from band intensity (an earlier response in the peer review file prints 150 uM, called sub-micromolar); EMSA: NMR buffer (composition not given in material) with 100 mM NaCl, 1.0 ng dsDNA in 20 ul, room temperature 20 min, SIB1:WRKY33_C 2:1; gel in 0.5x TBE, GelRed stain. The note with it: protein: recombinant; tags: C-terminal 6xHis; blunt.

Series [6] deals with T8, WRKY33_C-I360D mutant protein (Arabidopsis thaliana, UniProt Q8S8P5 331-422, I360D).
T8 construct: WRKY33, Arabidopsis, C-terminal DBD; source: E. coli BL21(DE3), purified (Ni-NTA, gel filtration Superdex-75)
As to the kind of experiment: NMR titration; 2D 1H-15N HSQC of 15N-labeled WRKY33_C (or its mutants), 0.1 mM, with SIB1 or SIB1 peptides added at 2:1 (5:1 also for SIB1^40–60 and SIB1^55–69); 30 mM MES pH 6.0, 50 mM NaCl, 20 uM ZnSO4, 10% D2O, 25 °C. The note with it: both partners purified.

In series [7] the target is T9, WRKY33_C-I358D mutant protein (Arabidopsis thaliana, UniProt Q8S8P5 331-422, I358D).
T9 construct: WRKY33, Arabidopsis, C-terminal DBD; source: E. coli BL21(DE3), purified (Ni-NTA, gel filtration Superdex-75)
The description is as above. Particulars: both partners purified.

In a further series the target is T10, WRKY33_C V351A mutant (Arabidopsis thaliana, UniProt Q8S8P5 331-422, V351A).
T10 construct: WRKY33, Arabidopsis, C-terminal DBD; source: E. coli BL21(DE3), purified (Ni-NTA, gel filtration Superdex-75)
The series is described as above. Particulars: both partners purified.

A further series concerns the target T11, WRKY33_C I350A mutant (Arabidopsis thaliana, UniProt Q8S8P5 331-422, I350A).
T11 construct: WRKY33, Arabidopsis, C-terminal DBD; source: E. coli BL21(DE3), purified (Ni-NTA, gel filtration Superdex-75)
The description is as above. Particulars: both partners purified.

In general, stoichiometry N refers to a count of units in the complex or per binding partner. One may read the Kd as a measure of binding affinity in units of concentration.

T7 sequence (Q8S8P5 331-422): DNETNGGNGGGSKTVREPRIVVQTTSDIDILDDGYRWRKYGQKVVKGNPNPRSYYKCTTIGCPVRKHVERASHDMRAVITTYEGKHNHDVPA
T6 sequence (Q8S8P5 331-422 R366C): as the sequence (Q8S8P5 331-422) above, with R36C counted along it
T2 sequence (Q8S8P5 331-422 R366C): as the sequence (Q8S8P5 331-422) above, with R36C counted along it
T3 sequence (Q8S8P5 331-422 D357C): as the sequence (Q8S8P5 331-422) above, with D27C counted along it
T4 sequence (Q8S8P5 331-422 D357C): as the sequence (Q8S8P5 331-422) above, with D27C counted along it
T1 sequence (Q8S8P5 331-422 K376C): as the sequence (Q8S8P5 331-422) above, with K46C counted along it
T5 sequence (Q8S8P5 331-422 K376C): as the sequence (Q8S8P5 331-422) above, with K46C counted along it
T11 sequence (Q8S8P5 331-422 I350A): as the sequence (Q8S8P5 331-422) above, with I20A counted along it
T9 sequence (Q8S8P5 331-422 I358D): as the sequence (Q8S8P5 331-422) above, with I28D counted along it
WRKY33_C, sequence (Q8S8P5 345-422): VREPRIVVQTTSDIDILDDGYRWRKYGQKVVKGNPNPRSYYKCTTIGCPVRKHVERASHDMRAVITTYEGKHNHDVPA
T10 sequence (Q8S8P5 331-422 V351A): as the sequence (Q8S8P5 331-422) above, with V21A counted along it
T8 sequence (Q8S8P5 331-422 I360D): as the sequence (Q8S8P5 331-422) above, with I30D counted along it

B1: SIB1^11-100 (T11-L100 segment of Arabidopsis sigma factor-binding protein SIB1) (domain or fragment, Arabidopsis thaliana, UniProt Q9LDH1 11-100, looked up)
chain: TTSLDKKKPSPVSRKSPKQKKKTTSTNKPIKVRYISNPMRVQTCASKFRELVQELTGQDAVDLQPEPIYSPSSDDHNLSPPAENLAPRVL
notes: SIB1 (VQ23), Arabidopsis, residues T11-L100; the N-terminal chloroplast targeting signal and the C-terminal 51 residues are deleted; Used unlabelled, 15N- or 13C/15N-labelled; also called VQ23; source: E. coli BL21(DE3), purified (Ni-NTA, gel filtration Superdex-75)
As to B1, the binding result (in series [1]; with WRKY33_C R366C mutant; in [2]; with WRKY33_C D357C mutant; with WRKY33_C K376C mutant; in [3]) was “binds” each time. Moreover, the “stoichiometry N” value in series [4] worked out at 1.

B2: Trx-SIB1 fusion protein (thioredoxin-fused SIB1) (domain or fragment, Arabidopsis thaliana, UniProt Q9LDH1 11-100, looked up)
chain: B1 chain
notes: SIB1 (VQ23), Arabidopsis; limits are not restated for the Trx fusion; The methods give 24 kDa for 'Trx'
As to B2, the “stoichiometry N” value in series [5] came out at 1.

B3: W-box DNA (dsDNA)
DNA 1: AAAGTTGACCAA
DNA 2: TTGGTCAACTTT
On to B3, for which the Kd with WRKY33_C was approximately 150 nM.

B4: SIB1^mini-V51R mutant peptide (peptide, UniProt Q9LDH1 46-69, looked up)
peptide: SNPMRRQTCASKFRELVQELTGQD
notes: SIB1 (VQ23), Arabidopsis, residues 46-69 with V51R
On to B4, for which the binding result in series [6] and in [7] was “binds” each time.

B5: SIB1^mini (SIB1^46–69 peptide, minimal SIB1 construct) (peptide, UniProt Q9LDH1 46-69, looked up)
peptide: SNPMRVQTCASKFRELVQELTGQD
notes: SIB1 (VQ23), Arabidopsis, residues 46-69: the VQ motif and its preceding segment; source: synthetic peptide
For the molecule B5, the binding result with WRKY33_C V351A mutant and in the series with WRKY33_C I350A mutant was “binds” throughout.
